Measurements: patent publication US20060185026

Test system: tau (substrate in the in vitro phosphorylation assay of FIG. 1A)

For “PKCζ (kinase in the in vitro phosphorylation assay of FIG. 1A)”, the “incorporation of radioactive phosphate into tau (autoradiogram)” value was “when tau is incubated with PKCζ phosphate is incorporated into tau”.
